The values that follow come from patent publication US20230052312A1 (Genentech, published 2023).

In assay [1] the target is T1, human PD-L1 (human, UniProt Q9NZQ7 19-290).
T1 construct: whole, on cells; Endogenous PD-L1 on cells of human donors and patients; also called programmed death ligand 1
The assay can be described thus: flow cytometry on human blood cells (conclusion of Example 1).

The target of assay [2] is T1, human PD-L1. The assay can be described thus: flow cytometry on stimulated human whole blood, with or without Atezolizumab. How it is done:
A Live Dead Kit (Invitrogen) was brought to room temperature. The kit included a near-IR fluorescent reactive dye and DMSO. 1× Pharm Lyse was made by mixing 10 mL of 10× Pharm Lyse (BD Biosciences) in 90 mL distilled water. After surface staining the cells in the test tubes, the tubes were vortexed and 3 mL of 1× Pharm Lyse was added to each test tube. The test tubes were vortexed again to enhance lysis of the cells in the presence of Pharm Lyse. The test tubes were then incubated for 15 minutes at room temperature in the dark. Following incubation, the test tubes were centrifuged for 5 minutes at 300 RCF/1500 to 1600 RPM. After centrifugation, the supernatant was aspirated as much as possible without disturbing the cell pellet. The bottom of each test tube was then flicked to break the cell pellet before washing the cells in 3 mL phosphate-buffered saline (PBS). The test tubes were centrifuged once more for 5 minutes at 300 RCF/1500 to 1600 RPM. The supernatant was then aspirated as before without disturbing the cell pellet. The bottom of each test tube was flicked to break the cell pellet and 1 mL of PBS was added to each test tube. A test tube was selected to perform a cell count using the BioRad TC20 cell counter. If the cell count was above 2 million live cells per mL of PBS in the tube, the concentration was adjusted to be 1 million live cells per mL and diluted accordingly using PBS. […]

T1 sequence (Q9NZQ7 19-290): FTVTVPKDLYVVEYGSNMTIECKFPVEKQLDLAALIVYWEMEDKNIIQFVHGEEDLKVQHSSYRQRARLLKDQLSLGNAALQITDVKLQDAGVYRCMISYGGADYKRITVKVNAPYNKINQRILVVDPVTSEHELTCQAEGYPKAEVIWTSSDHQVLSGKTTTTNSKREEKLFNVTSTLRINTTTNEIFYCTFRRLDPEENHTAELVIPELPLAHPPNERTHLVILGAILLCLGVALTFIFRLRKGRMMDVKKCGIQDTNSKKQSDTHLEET

B1: anti-PD-L1 14D3 antibody (antibody, V domains shown)
VH: QVQLQQSGPELVNPGASVKISCKASGYAFSTSWMNWVKQRPGKGLEWIGRIYPRDGDTYYNGKFKDKATLTADKSSNTAYMQLSSLTSEDSAVYFCTKNPGGYYFDYWGQGTTLTVSS
VL: DIQMTQTTSSLSASLGDRVTINCRASQDIHTYLNWYQQKPDGTVKLLIFYTSRLHSGVPSRFSGSGSGTDYSLTISNLEQEDIATYFCQQVSSLPPWTFGGGTKVEIK
notes: also called clone 14D3; PD-L1 GNE
As for B1, in the assay with human PD-L1 [1], the binding result is “binds”.

B2: anti-PD-L1 AF647 14D3 (antibody, V domains shown)
VH: B1 VH
VL: B1 VL
notes: also called anti-PD-L1 14D3 antibody labeled with AF647
B2: in the assay with human PD-L1 [2], the binding result was “binds”.

B3: anti-PD-L1 PE 14D3 (antibody, V domains shown)
VH: B1 VH
VL: B1 VL
notes: also called anti-PD-L1 14D3 antibody labeled with PE
Take B3: the binding result in the assay with human PD-L1 [2] was “binds”.
